# Where no end group is shown, it is not given here.
# B1: AM(37-52) S45R/K46L/Q50W (peptide)
# peptide: DKDNVAPRRLISPWGY-NH2
# notes: also called AM(37-52)NH2 [S45R, K46L, Q50W]
# B2: AM(37-52) S45R/K46W/Q50W (peptide)
# peptide: DKDNVAPRRWISPWGY-NH2
# notes: also called AM(37-52)NH2 [S45R, K46W, Q50W]
# B3: AM(37-52) S45R/K46W/S48G/Q50W (peptide)
# peptide: DKDNVAPRRWIGPWGY-NH2
# notes: also called AM(37-52)NH2 [S45R, K46W, S48G, Q50W]
# B4: AM(37-52) S45R/K46W/I47L/S48G/Q50W (peptide)
# peptide: DKDNVAPRRWLGPWGY-NH2
# notes: also called AM(37-52)NH2 [S45R, K46W, I47L, S48G, Q50W]
# B5: AM(37-52) S45R/K46L/S48G/Q50W (peptide)
# peptide: DKDNVAPRRLIGPWGY-NH2
# notes: also called AM(37-52)NH2 [S45R, K46L, S48G, Q50W]
# B6: AM(37-52) D37V/S45W/K46L/Q50W/Y52F (peptide)
# peptide: VKDNVAPRWLISPWGF-NH2
# notes: also called AM(37-52)NH2 [D37V, S45W, K46L, Q50W, Y52F]
# Molecular target: T1, MBP-RAMP1 ECD-(GS)5-CLR ECD-H6 fusion protein (human, UniProt O60894 24-111; Q16602 29-144)
# T1 construct: range 24-111;range 29-144; Tethered ECD fusion made in E. coli; used in the FP assay at 15 nM; also called MBP-hRAMP1.24-111-(Gly-Ser)5-hCLR.29-144-H6
# T1 sequence (O60894 other isoform, or with tags, fused parts or gaps limits assumed, form in doubt): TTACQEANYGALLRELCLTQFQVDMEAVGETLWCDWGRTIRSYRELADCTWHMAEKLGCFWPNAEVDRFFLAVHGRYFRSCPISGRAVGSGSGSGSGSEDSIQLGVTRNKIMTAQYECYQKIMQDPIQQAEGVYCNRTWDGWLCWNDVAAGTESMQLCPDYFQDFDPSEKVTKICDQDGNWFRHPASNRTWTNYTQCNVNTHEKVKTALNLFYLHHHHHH
# Assay: ratio of FP KI values at the two ECD complexes
# Procedure: (§1) Fluorescence polarization peptide binding assay. […] The reactions (50 μL) were incubated for 2 hours at room temperature to reach equilibrium, and the anisotropy was measured in black half-area 96-well plates using a BMG LABTECH's POLARstar® Omega plate reader (Ortenberg, Germany). The reaction buffer was 50 mM HEPES, pH 7.5, 150 mM NaCl, 0.5 mg/ml fatty acid-free BSA, 0.5 mM EDTA, 0.5 mM maltose. KI values were calculated using nonlinear regression fitting of the competition curves to the exact analytical equations of Roehrl et al. (Biochemistry (2004) 43:16056-66) using GraphPad Prism 5.0 (GraphPad Software, San Diego Calif.).
# (§2) The large size difference between the MBP-RAMP ECD-CLR ECD fusion proteins (˜65 kDa) and the probe (˜2.5 kDa) ensures a significant anisotropy difference between bound and free states of the probe. […] Kd values for the probe at each of the tethered ECD fusion proteins were determined in equilibrium saturation binding experiments (data not shown), and KI values were determined for unlabeled peptides in equilibrium competition experiments (Table 1; FIGS. 2-5). The data were analyzed according to exact analytical equations using non-linear regression curve fitting in GraphPad Prism 5.0 (GraphPad Software) via user-defined equations.
row,Binder,"Receptor Selectivity (fold, over RAMP2-CLR ECD) [fold]"
1,"FVPTDTGPWGY-NH2 [CGRP(27-37)NH2 [N31D, V32T, S34P, K35W, A36G, F37Y]]",821
2,"FVPTDVGPWSY-NH2 [CGRP(27-37)NH2 [N31D, S34P, K35W, A36S, F37Y]]",245
3,"DKFNVAPRSLISPWGY-NH2 [AM(37-52)NH2 [D39F, K46L, Q50W]]",22
4,"DKDNVAPRSLISPWGF-NH2 [AM(37-52)NH2 [K46L, Q50W, Y52F]]",2820
5,"DKDNVAPRSLISPWGY-NH2 [AM(37-52)NH2 [K46L, Q50W]]",23
6,"DKDNVAPRWWISPWGF-NH2 [AM(37-52)NH2 [S45W, K46W, Q50W, Y52F]]",692
7,"DKDNVAPRTWISPWGY-NH2 [AM(37-52)NH2[S45T, K46W, Q50W]]",28
8,"DKDNVAPRWMISPWGF-NH2 [AM(37-52)NH2 [S45W, K46M, Q50W, Y52F]]",977
9,"DKFNVAPRSLISPWGF-NH2 [AM(37-52)NH2 [D39F, K46L, Q50W, Y52F]]",1210

# Molecular target: MBP-RAMP2 ECD [L106R]-(GS)5-CLR ECD-H6 fusion protein (human) (UniProt O60895)
# Sequence (O60895 other isoform, or with tags, fused parts or gaps L106R L106R): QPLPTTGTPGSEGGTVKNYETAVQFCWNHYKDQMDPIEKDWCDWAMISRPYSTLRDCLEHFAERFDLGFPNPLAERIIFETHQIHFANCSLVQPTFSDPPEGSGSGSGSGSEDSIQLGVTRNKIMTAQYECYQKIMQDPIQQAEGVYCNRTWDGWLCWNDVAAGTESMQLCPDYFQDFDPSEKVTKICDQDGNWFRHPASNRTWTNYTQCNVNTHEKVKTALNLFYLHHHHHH
# Assay: FP (anisotropy) competition: displaces FITC-Ahx-AM(37-52)NH2[S45W,Q50W] probe (7 nM) from MBP-RAMP2 ECD[L106R]-(GS)5-CLR ECD-H6 (110 nM) [I-K) panel I]
row,Binder,IC50 (read off the curve) [nM]
1,B1,300
2,B2,2000

# Molecular target: MBP-RAMP2 ECD [L106R]-(GS)5-CLR ECD-H6 fusion protein (human) (UniProt O60895)
# Assay: FP competition vs FITC-AM W/W probe, purified ECD fusion
Binder,Ki [nM],pKI
"FVPTDTGPWGY-NH2 [CGRP(27-37)NH2 [N31D, V32T, S34P, K35W, A36G, F37Y]]",14500,4.84
"FVPTDVGPWSY-NH2 [CGRP(27-37)NH2 [N31D, S34P, K35W, A36S, F37Y]]",324,6.49
"DKFNVAPRSLISPWGY-NH2 [AM(37-52)NH2 [D39F, K46L, Q50W]]",1830,5.74
"DKDNVAPRSLISPWGF-NH2 [AM(37-52)NH2 [K46L, Q50W, Y52F]]",89100,4.05
"DKDNVAPRSLISPWGY-NH2 [AM(37-52)NH2 [K46L, Q50W]]",1660,5.78
"DKDNVAPRWWISPWGF-NH2 [AM(37-52)NH2 [S45W, K46W, Q50W, Y52F]]",16600,4.78
"DKDNVAPRTWISPWGY-NH2 [AM(37-52)NH2[S45T, K46W, Q50W]]",12500,4.9
"DKDNVAPRWMISPWGF-NH2 [AM(37-52)NH2 [S45W, K46M, Q50W, Y52F]]",7760,5.11
"DKFNVAPRSLISPWGF-NH2 [AM(37-52)NH2 [D39F, K46L, Q50W, Y52F]]",30300,4.55
DKKNVAPRSKISPQGY-NH2 [AM(37-52)NH2 [D39K]],6100,5.22

# Molecular target: MBP-RAMP2 ECD [L106R]-(GS)5-CLR ECD-H6 fusion protein (human) (UniProt O60895)
# Assay: FP (anisotropy) competition: displaces FITC-Ahx-AM(37-52)NH2[S45W,Q50W] probe (7 nM) from MBP-RAMP2 ECD[L106R]-(GS)5-CLR ECD-H6 (110 nM) [I-K) panel J]
row,Binder,IC50 (read off the curve) [nM]
1,B3,700
2,B4,1000
3,B5,90

# Molecular target: T1, MBP-RAMP1 ECD-(GS)5-CLR ECD-H6 fusion …
# Assay: FP (anisotropy) competition: displaces FITC-Ahx-AM(37-52)NH2[S45W,Q50W] probe (7 nM) from MBP-RAMP1 ECD-(GS)5-CLR ECD-H6 (15 nM) [A-C) panel B]
# Procedure: as §1
# as §1, with “Single representative experiments conducted with duplicate samples are shown.” for “Fluorescence polarization peptide binding assay.”, “reactions” for “reactions (50 μL)”
row,Binder,IC50 (read off the curve) [nM]
1,"FVPTDVGPFSF-NH2 [CGRP(27-37)NH2 [N31D, S34P, K35F, A36S]]",~20
2,"FVPTDVGPWAF-NH2 [CGRP(27-37)NH2 [N31D, S34P, K35W]]",~20

# Molecular target: T1, MBP-RAMP1 ECD-(GS)5-CLR ECD-H6 fusion …
# Assay: FP (anisotropy) competition: displaces FITC-Ahx-AM(37-52)NH2[S45W,Q50W] probe (7 nM) from MBP-RAMP1 ECD-(GS)5-CLR ECD-H6 (15 nM) [A-C) panel C]
# Procedure: as §1
row,Binder,IC50 (read off the curve) [nM]
1,"DKDNVAPRSLISPWGF-NH2 [AM(37-52)NH2 [K46L, Q50W, Y52F]]",~100
2,"DKDNVAPRSLISPWGY-NH2 [AM(37-52)NH2 [K46L, Q50W]]",~100

# Molecular target: T1, MBP-RAMP1 ECD-(GS)5-CLR ECD-H6 fusion …
# Assay: FP competition vs FITC-AM W/W probe, purified ECD fusion
# Procedure: as §1, §2
Binder,Ki [nM],pKI
"FVPTDVGPFSF-NH2 [CGRP(27-37)NH2 [N31D, S34P, K35F, A36S]]",2.95,8.53
"FVPTDTGPWGY-NH2 [CGRP(27-37)NH2 [N31D, V32T, S34P, K35W, A36G, F37Y]]",17.6,7.75
"FVPTDVGPWSY-NH2 [CGRP(27-37)NH2 [N31D, S34P, K35W, A36S, F37Y]]",1.32,8.88
"FVPTDVGPWAF-NH2 [CGRP(27-37)NH2 [N31D, S34P, K35W]]",8.13,8.09
"DKFNVAPRSLISPWGY-NH2 [AM(37-52)NH2 [D39F, K46L, Q50W]]",82.2,7.1
"DKDNVAPRSLISPWGF-NH2 [AM(37-52)NH2 [K46L, Q50W, Y52F]]",31.6,7.5
"DKDNVAPRSLISPWGY-NH2 [AM(37-52)NH2 [K46L, Q50W]]",70.8,7.15
"DKDNVAPRWWISPWGF-NH2 [AM(37-52)NH2 [S45W, K46W, Q50W, Y52F]]",24,7.62
"DKDNVAPRTWISPWGY-NH2 [AM(37-52)NH2[S45T, K46W, Q50W]]",440,6.36
"DKDNVAPRWMISPWGF-NH2 [AM(37-52)NH2 [S45W, K46M, Q50W, Y52F]]",7.94,8.1
"DKFNVAPRSLISPWGF-NH2 [AM(37-52)NH2 [D39F, K46L, Q50W, Y52F]]",25,7.61

# Molecular target: T1, MBP-RAMP1 ECD-(GS)5-CLR ECD-H6 fusion …
# Assay: FP (anisotropy) competition: displaces FITC-Ahx-AM(37-52)NH2[S45W,Q50W] probe (7 nM) from MBP-RAMP1 ECD-(GS)5-CLR ECD-H6 (15 nM) [D-E) panel E]
# Procedure: as §1
row,Binder,IC50 (read off the curve) [nM]
1,"DKDNVAPRWWISPWGF-NH2 [AM(37-52)NH2 [S45W, K46W, Q50W, Y52F]]",~70
2,"DKDNVAPRWMISPWGF-NH2 [AM(37-52)NH2 [S45W, K46M, Q50W, Y52F]]",~30

# Molecular target: T1, MBP-RAMP1 ECD-(GS)5-CLR ECD-H6 fusion …
# Assay: FP (anisotropy) competition: displaces FITC-Ahx-AM(37-52)NH2[S45W,Q50W] probe (7 nM) from MBP-RAMP1 ECD-(GS)5-CLR ECD-H6 (15 nM) [F-H) panel H]
# Procedure: as §1
row,Binder,IC50 (read off the curve) [nM]
1,B1,~90
2,B2,~300

# Molecular target: T1, MBP-RAMP1 ECD-(GS)5-CLR ECD-H6 fusion …
# Assay: FP (anisotropy) competition: displaces FITC-Ahx-AM(37-52)NH2[S45W,Q50W] probe (7 nM) from MBP-RAMP1 ECD-(GS)5-CLR ECD-H6 (15 nM) [I-J) upper graph]
# Procedure: as §1
row,Binder,IC50 (read off the curve) [nM]
1,B3,~100
2,B4,~100
3,B5,~20

# Molecular target: T1, MBP-RAMP1 ECD-(GS)5-CLR ECD-H6 fusion …
# Assay: FP (anisotropy) competition: displaces FITC-Ahx-AM(37-52)NH2[S45W,Q50W] probe (7 nM) from MBP-RAMP1 ECD-(GS)5-CLR ECD-H6 (15 nM) [D-E) panel D]
# Procedure: as §1
row,Binder,IC50 (read off the curve) [nM]
1,"DKFNVAPRSLISPWGY-NH2 [AM(37-52)NH2 [D39F, K46L, Q50W]]",~200
2,"DKFNVAPRSLISPWGF-NH2 [AM(37-52)NH2 [D39F, K46L, Q50W, Y52F]]",~80

# Molecular target: T1, MBP-RAMP1 ECD-(GS)5-CLR ECD-H6 fusion …
# Assay: FP (anisotropy) competition: displaces FITC-Ahx-AM(37-52)NH2[S45W,Q50W] probe (7 nM) from MBP-RAMP1 ECD-(GS)5-CLR ECD-H6 (15 nM) [I-J) lower graph]
# Procedure: as §1
row,Binder,IC50 (read off the curve) [nM]
1,B6,~10

# Molecular target: T1, MBP-RAMP1 ECD-(GS)5-CLR ECD-H6 fusion …
# Assay: FP (anisotropy) competition: displaces FITC-Ahx-AM(37-52)NH2[S45W,Q50W] probe (7 nM) from MBP-RAMP1 ECD-(GS)5-CLR ECD-H6 (15 nM) [A-C) panel C]
# Remark: another data set of the same source
# Procedure: as §1
# as §1, with “Single representative experiments conducted with duplicate samples are shown.” for “Fluorescence polarization peptide binding assay.”, “reactions” for “reactions (50 μL)”
row,Binder,IC50 (read off the curve) [nM]
1,"FVPTDVGPWSY-NH2 [CGRP(27-37)NH2 [N31D, S34P, K35W, A36S, F37Y]]",~20

# Reference: patent publication US20180141989A1 (BOARD OF REGENTS OF THE UNIVERSITY OF OKLAHOMA, published 2018)
